Results on two molecules are retold here after article PMC4821178 (Insect Biochemistry and Molecular Biology, 2016).

Assay [1] has as its target human nicotinic acetylcholine receptor α7 subunit with a three amino acid (IIC) deletion in TM4 (human) (UniProt P36544). Description: radioligand binding.
For assay [2], the target named is T1, human nicotinic acetylcholine receptor α7 subunit, wild type (human, UniProt P36544 23-502).
T1 construct: also called Hα7; human α7 nAChR
Description: radioligand binding. The following applies: one partner purified.

In the case of “[3H]-α-bungarotoxin (from UniProt P60615 22-95) (natural protein)”, the half-maximal effective concentration (EC50) in assay [1] stood at 0.9 nM.

B1: [3H]-α-bungarotoxin (natural protein)
chain: IVCHTTATSPISAVTCPPGENLCYRKMWCDAFCSSRGKVVELGCAATCPSKKPYEEVTCCSTDKCNPHPKQRPG
In assay [2], B1 gave a concentration giving a half-maximal response (EC50) of 20 ± 5.8 nM.
